From publication doi:10.1101/2021.01.21.427698 (bioRxiv, 2021)

B1: recombinant human septin octamers containing SEPT9_i1 (nonfluorescent) (complex)
chain 1: MSKQQPTQFINPETPGYVGFANLPNQVHRKSVKKGFEFTLMVVGESGLGKSTLINSLFLTDLYPERVIPGAAEKIERTVQIEASTVEIEERGVKLRLTVVDTPGYGDAINCRDCFKTIISYIDEQFERYLHDESGLNRRHIIDNRVHCCFYFISPFGHGLKPLDVAFMKAIHNKVNIVPVIAKADTLTLKERERLKKRILDEIEEHNIKIYHLPDAESDEDEDFKEQTRLLKASIPFSVVGSNQLIEAKGKKVRGRLYPWGVVEVENPEHNDFLKLRTMLITHMQDLQEVTQDLHYENFRSERLKRGGRKVENEDMNKDQILLEKEAELRRMQEMIARMQAQMQMQMQGGDGDGGALGHHV
chain 2: MAATDIARQVGEGCRTVPLAGHVGFDSLPDQLVNKSVSQGFCFNILCVGETGLGKSTLMDTLFNTKFEGEPATHTQPGVQLQSNTYDLQESNVRLKLTIVSTVGFGDQINKEDSYKPIVEFIDAQFEAYLQEELKIRRVLHTYHDSRIHVCLYFIAPTGHSLKSLDLVTMKKLDSKVNIIPIIAKADAISKSELTKFKIKITSELVSNGVQIYQFPTDDESVAEINGTMNAHLPFAVIGSTEELKIGNKMMRARQYPWGTVQVENEAHCDFVKLREMLIRVNMEDLREQTHTRHYELYRRCKLEEMGFKDTDPDSKPFSLQETYEAKRNEFLGELQKKEEEMRQMFVQRVKEKEAELKEAEKELHEKFDRLKKLHQDEKKKLEDKKKSLDDEVNAFKQRKTAAELLQSQGSQAGGSQTLKRDKEKKN
chain 3: MSVSARSAAAEERSVNSSTMVAQQKNLEGYVGFANLPNQVYRKSVKRGFEFTLMVVGESGLGKSTLINSLFLTDLYSPEYPGPSHRIKKTVQVEQSKVLIKEGGVQLLLTIVDTPGFGDAVDNSNCWQPVIDYIDSKFEDYLNAESRVNRRQMPDNRVQCCLYFIAPSGHGLKPLDIEFMKRLHEKVNIIPLIAKADTLTPEECQQFKKQIMKEIQEHKIKIYEFPETDDEEENKLVKKIKDRLPLAVVGSNTIIEVNGKRVRGRQYPWGVAEVENGEHCDFTILRNMLIRTHMQDLKDVTNNVHYENYRSRKLAAVTYNGVDNNKNKGQLTKSPLAQMEEERREHVAKMKKMEMEMEQVFEMKVKEKVQKLKDSEAELQRRHEQMKKNLEAQHKELEEKRRQFEDEKANWEAQQRILEQQNSSRTLEKNKKKGKIF
chain 4: MKKSYSGGTRTSSGRLRRLGDSSGPALKRSFEVEEVETPNSTPPRRVQTPLLRATVASSTQKFQDLGVKNSEPSARHVDSLSQRSPKASLRRVELSGPKAAEPVSRRTELSIDISSKQVENAGAIGPSRFGLKRAEVLGHKTPEPAPRRTEITIVKPQESAHRRMEPPASKVPEVPTAPATDAAPKRVEIQMPKPAEAPTAPSPAQTLENSEPAPVSQLQSRLEPKPQPPVAEATPRSQEATEAAPSCVGDMADTPRDAGLKQAPASRNEKAPVDFGYVGIDSILEQMRRKAMKQGFEFNIMVVGQSGLGKSTLINTLFKSKISRKSVQPTSEERIPKTIEIKSITHDIEEKGVRMKLTVIDTPGFGDHINNENCWQPIMKFINDQYEKYLQEEVNINRKKRIPDTRVHCCLYFIPATGHSLRPLDIEFMKRLSKVVNIVPVIAKADTLTLEERVHFKQRITADLLSNGIDVYPQKEFDEDSEDRLVNEKFREMIPFAVVGSDHEYQVNGKRILGRKTKWGTIEVENTTHCEFAYLRDLLIRTHMQNIKDITSSIHFEAYRVKRLNEGSSAMANGVEEKEPEAPEM
B2: recombinant mammalian SEPT9_i3-containing octamers (mouse SEPT2, human SEPT6, human SEPT7ΔN19, human SEPT9_i3) (complex)
chain 1: MSKQQPTQFINPETPGYVGFANLPNQVHRKSVKKGFEFTLMVVGESGLGKSTLINSLFLTDLYPERIIPGAAEKIERTVQIEASTVEIEERGVKLRLTVVDTPGYGDAINCRDCFKTIISYIDEQFERYLHDESGLNRRHIIDNRVHCCFYFISPFGHGLKPLDVAFMKAIHNKVNIVPVIAKADTLTLKERERLKKRILDEIEEHSIKIYHLPDAESDEDEDFKEQTRLLKASIPFSVVGSNQLIEAKGKKVRGRLYPWGVVEVENPEHNDFLKLRTMLITHMQDLQEVTQDLHYENFRSERLKRGGRKVENEDMNKDQILLEKEAELRRMQEMIARMQAQMQMQMQGGDSDSGALGQHV
chain 2: MAATDIARQVGEGCRTVPLAGHVGFDSLPDQLVNKSVSQGFCFNILCVGETGLGKSTLMDTLFNTKFEGEPATHTQPGVQLQSNTYDLQESNVRLKLTIVSTVGFGDQINKEDSYKPIVEFIDAQFEAYLQEELKIRRVLHTYHDSRIHVCLYFIAPTGHSLKSLDLVTMKKLDSKVNIIPIIAKADAISKSELTKFKIKITSELVSNGVQIYQFPTDDESVAEINGTMNAHLPFAVIGSTEELKIGNKMMRARQYPWGTVQVENEAHCDFVKLREMLIRVNMEDLREQTHTRHYELYRRCKLEEMGFKDTDPDSKPFSLQETYEAKRNEFLGELQKKEEEMRQMFVQRVKEKEAELKEAEKELHEKFDRLKKLHQDEKKKLEDKKKSLDDEVNAFKQRKTAAELLQSQGSQAGGSQTLKRDKEKKN
chain 3: MVAQQKNLEGYVGFANLPNQVYRKSVKRGFEFTLMVVGESGLGKSTLINSLFLTDLYSPEYPGPSHRIKKTVQVEQSKVLIKEGGVQLLLTIVDTPGFGDAVDNSNCWQPVIDYIDSKFEDYLNAESRVNRRQMPDNRVQCCLYFIAPSGHGLKPLDIEFMKRLHEKVNIIPLIAKADTLTPEECQQFKKQIMKEIQEHKIKIYEFPETDDEEENKLVKKIKDRLPLAVVGSNTIIEVNGKRVRGRQYPWGVAEVENGEHCDFTILRNMLIRTHMQDLKDVTNNVHYENYRSRKLAAVTYNGVDNNKNKGQLTKSPLAQMEEERREHVAKMKKMEMEMEQVFEMKVKEKVQKLKDSEAELQRRHEQMKKNLEAQHKELEEKRRQFEDEKANWEAQQRILEQQNSSRTLEKNKKKGKIF
chain 4: MERDRISALKRSFEVEEVETPNSTPPRRVQTPLLRATVASSTQKFQDLGVKNSEPSARHVDSLSQRSPKASLRRVELSGPKAAEPVSRRTELSIDISSKQVENAGAIGPSRFGLKRAEVLGHKTPEPAPRRTEITIVKPQESAHRRMEPPASKVPEVPTAPATDAAPKRVEIQMPKPAEAPTAPSPAQTLENSEPAPVSQLQSRLEPKPQPPVAEATPRSQEATEAAPSCVGDMADTPRDAGLKQAPASRNEKAPVDFGYVGIDSILEQMRRKAMKQGFEFNIMVVGQSGLGKSTLINTLFKSKISRKSVQPTSEERIPKTIEIKSITHDIEEKGVRMKLTVIDTPGFGDHINNENCWQPIMKFINDQYEKYLQEEVNINRKKRIPDTRVHCCLYFIPATGHSLRPLDIEFMKRLSKVVNIVPVIAKADTLTLEERVHFKQRITADLLSNGIDVYPQKEFDEDSEDRLVNEKFREMIPFAVVGSDHEYQVNGKRILGRKTKWGTIEVENTTHCEFAYLRDLLIRTHMQNIKDITSSIHFEAYRVKRLNEGSSAMANGVEEKEPEAPEM
B3: recombinant human septin octamers containing SEPT9_i3 (nonfluorescent) (complex)
chain 1: MSKQQPTQFINPETPGYVGFANLPNQVHRKSVKKGFEFTLMVVGESGLGKSTLINSLFLTDLYPERVIPGAAEKIERTVQIEASTVEIEERGVKLRLTVVDTPGYGDAINCRDCFKTIISYIDEQFERYLHDESGLNRRHIIDNRVHCCFYFISPFGHGLKPLDVAFMKAIHNKVNIVPVIAKADTLTLKERERLKKRILDEIEEHNIKIYHLPDAESDEDEDFKEQTRLLKASIPFSVVGSNQLIEAKGKKVRGRLYPWGVVEVENPEHNDFLKLRTMLITHMQDLQEVTQDLHYENFRSERLKRGGRKVENEDMNKDQILLEKEAELRRMQEMIARMQAQMQMQMQGGDGDGGALGHHV
chain 2: MAATDIARQVGEGCRTVPLAGHVGFDSLPDQLVNKSVSQGFCFNILCVGETGLGKSTLMDTLFNTKFEGEPATHTQPGVQLQSNTYDLQESNVRLKLTIVSTVGFGDQINKEDSYKPIVEFIDAQFEAYLQEELKIRRVLHTYHDSRIHVCLYFIAPTGHSLKSLDLVTMKKLDSKVNIIPIIAKADAISKSELTKFKIKITSELVSNGVQIYQFPTDDESVAEINGTMNAHLPFAVIGSTEELKIGNKMMRARQYPWGTVQVENEAHCDFVKLREMLIRVNMEDLREQTHTRHYELYRRCKLEEMGFKDTDPDSKPFSLQETYEAKRNEFLGELQKKEEEMRQMFVQRVKEKEAELKEAEKELHEKFDRLKKLHQDEKKKLEDKKKSLDDEVNAFKQRKTAAELLQSQGSQAGGSQTLKRDKEKKN
chain 3: MSVSARSAAAEERSVNSSTMVAQQKNLEGYVGFANLPNQVYRKSVKRGFEFTLMVVGESGLGKSTLINSLFLTDLYSPEYPGPSHRIKKTVQVEQSKVLIKEGGVQLLLTIVDTPGFGDAVDNSNCWQPVIDYIDSKFEDYLNAESRVNRRQMPDNRVQCCLYFIAPSGHGLKPLDIEFMKRLHEKVNIIPLIAKADTLTPEECQQFKKQIMKEIQEHKIKIYEFPETDDEEENKLVKKIKDRLPLAVVGSNTIIEVNGKRVRGRQYPWGVAEVENGEHCDFTILRNMLIRTHMQDLKDVTNNVHYENYRSRKLAAVTYNGVDNNKNKGQLTKSPLAQMEEERREHVAKMKKMEMEMEQVFEMKVKEKVQKLKDSEAELQRRHEQMKKNLEAQHKELEEKRRQFEDEKANWEAQQRILEQQNSSRTLEKNKKKGKIF
chain 4: MERDRISALKRSFEVEEVETPNSTPPRRVQTPLLRATVASSTQKFQDLGVKNSEPSARHVDSLSQRSPKASLRRVELSGPKAAEPVSRRTELSIDISSKQVENAGAIGPSRFGLKRAEVLGHKTPEPAPRRTEITIVKPQESAHRRMEPPASKVPEVPTAPATDAAPKRVEIQMPKPAEAPTAPSPAQTLENSEPAPVSQLQSRLEPKPQPPVAEATPRSQEATEAAPSCVGDMADTPRDAGLKQAPASRNEKAPVDFGYVGIDSILEQMRRKAMKQGFEFNIMVVGQSGLGKSTLINTLFKSKISRKSVQPTSEERIPKTIEIKSITHDIEEKGVRMKLTVIDTPGFGDHINNENCWQPIMKFINDQYEKYLQEEVNINRKKRIPDTRVHCCLYFIPATGHSLRPLDIEFMKRLSKVVNIVPVIAKADTLTLEERVHFKQRITADLLSNGIDVYPQKEFDEDSEDRLVNEKFREMIPFAVVGSDHEYQVNGKRILGRKTKWGTIEVENTTHCEFAYLRDLLIRTHMQNIKDITSSIHFEAYRVKRLNEGSSAMANGVEEKEPEAPEM

Target: the molecule itself
Test: negative-stain electron microscopy of septin polymerisation

Binding result, binds:
B1
B2
B3
